Results on four molecules are retold here after paper doi:10.1101/2021.01.13.426575 (bioRxiv, 2021).

B1: DPP9, short isoform (DPP9S), co-expressed with CARD8 for cryo-EM (enzyme, human)
chain: MATTGTPTADRGDAAATDDPAARFQVQKHSWDGLRSIIHGSRKYSGLIVNKAPHDFQFVQKTDESGPHSHRLYYLGMPYGSRENSLLYSEIPKKVRKEALLLLSWKQMLDHFQATPHHGVYSREEELLRERKRLGVFGITSYDFHSESGLFLFQASNSLFHCRDGGKNGFMVSPMKPLEIKTQCSGPRMDPKICPADPAFFSFINNSDLWVANIETGEERRLTFCHQGLSNVLDDPKSAGVATFVIQEEFDRFTGYWWCPTASWEGSEGLKTLRILYEEVDESEVEVIHVPSPALEERKTDSYRYPRTGSKNPKIALKLAEFQTDSQGKIVSTQEKELVQPFSSLFPKVEYIARAGWTRDGKYAWAMFLDRPQQWLQLVLLPPALFIPSTENEEQRLASARAVPRNVQPYVVYEEVTNVWINVHDIFYPFPQSEGEDELCFLRANECKTGFCHLYKVTAVLKSQGYDWSEPFSPGEDEFKCPIKEEIALTSGEWEVLARHGSKIWVNEETKLVYFQGTKDTPLEHHLYVVSYEAAGEIVRLTTPGFSHSCSMSQNFDMFVSHYSSVSTPPCVHVYKLSGPDDDPLHKQPRFWASMMEAASCPPDYVPPEIFHFHTRSDVRLYGMIYKPHALQPGKKHPTVLFVYGGPQVQLVNNSFKGIKYLRLNTLASLGYAVVVIDGRGSCQRGLRFEGALKNQMGQVEIEDQVEGLQFVAEKYGFIDLSRVAIHGWSYGGFLSLMGLIHKPQVFKVAIAGAPVTVWMAYDTGYTERYMDVPENNQHGYEAGSVALHVEKLPNEPNRLLILHGFLDENVHFFHTNFLVSQLIRAGKPYQLQIYPNERHSIRCPESGEHYEVTLLHFLQEYL
B2: Full-length CARD8 (T60 isoform), wild type, co-expressed with DPP9S for cryo-EM (natural protein, human, UniProt Q9Y2G2-5 1-537, looked up)
chain: MEKKECPEKSSSSEEELPRRDSGSSRNIDASKLIRLQGSRKLLVDNSIRELQYTKTGIFFQAEACVTNDTVYRELPCVSETLCDISHFFQEDDETEAEPLLFRAVPECQLSGGDIPSVSEEQESSEGQDSGDICSEENQIVSSYASKVCFEIEEDYKNRQFLGPEGNVDVELIDKSTNRYSVWFPTAGWYLWSATGLGFLVRDEVTVTIAFGSWSQHLALDLQHHEQWLVGGPLFDVTAEPEEAVAEIHLPHFISLQAGEVDVSWFLVAHFKNEGMVLEHPARVEPFYAVLESPSFSLMGILLRIASGTRLSIPITSNTLIYYHPHPEDIKFHLYLVPSDALLTKAIDDEEDRFHGVRLQTSPPMEPLNFGSSYIVSNSANLKVMPKELKLSYRSPGEIQHFSKFYAGQMKEPIQLEITEKRHGTLVWDTEVKPVDLQLVAASAPPPFSGAAFVKENHRQLQARMGDLKGVLDDLQDNEVLTENEKELVEQEKTRQSKNEALLSMVEKKGDLALDVLFRSISERDPYLVSYLRQQNL

Assay in all cases: cryo-EM structure
Experiment [1] concerns the target B2.
The target of experiment [2] is B1.
For experiment [3], the target named is B1. This is another data set of the same source.

Where two headings read alike, the source gives them in different places.

As for B1, in experiment [1], the “stoichiometry N” value stood at 1.

As for B2, the binding result in experiment [2] is “binds”.

B3: Full-length CARD8 S297A (autoproteolysis-deficient), co-expressed with DPP9S for cryo-EM (natural protein, human, UniProt Q9Y2G2-5 1-537, looked up)
chain: MEKKECPEKSSSSEEELPRRDSGSSRNIDASKLIRLQGSRKLLVDNSIRELQYTKTGIFFQAEACVTNDTVYRELPCVSETLCDISHFFQEDDETEAEPLLFRAVPECQLSGGDIPSVSEEQESSEGQDSGDICSEENQIVSSYASKVCFEIEEDYKNRQFLGPEGNVDVELIDKSTNRYSVWFPTAGWYLWSATGLGFLVRDEVTVTIAFGSWSQHLALDLQHHEQWLVGGPLFDVTAEPEEAVAEIHLPHFISLQAGEVDVSWFLVAHFKNEGMVLEHPARVEPFYAVLESPSFALMGILLRIASGTRLSIPITSNTLIYYHPHPEDIKFHLYLVPSDALLTKAIDDEEDRFHGVRLQTSPPMEPLNFGSSYIVSNSANLKVMPKELKLSYRSPGEIQHFSKFYAGQMKEPIQLEITEKRHGTLVWDTEVKPVDLQLVAASAPPPFSGAAFVKENHRQLQARMGDLKGVLDDLQDNEVLTENEKELVEQEKTRQSKNEALLSMVEKKGDLALDVLFRSISERDPYLVSYLRQQNL
Regarding B3, the binding result in experiment [3] is given as “binds”.

B4: CARD8-CT (N-terminally degraded CARD8, UPA-CARD) in the purified CARD8-DPP9 complex (domain or fragment, human, UniProt Q9Y2G2-5 297-537, looked up)
chain: SLMGILLRIASGTRLSIPITSNTLIYYHPHPEDIKFHLYLVPSDALLTKAIDDEEDRFHGVRLQTSPPMEPLNFGSSYIVSNSANLKVMPKELKLSYRSPGEIQHFSKFYAGQMKEPIQLEITEKRHGTLVWDTEVKPVDLQLVAASAPPPFSGAAFVKENHRQLQARMGDLKGVLDDLQDNEVLTENEKELVEQEKTRQSKNEALLSMVEKKGDLALDVLFRSISERDPYLVSYLRQQNL
In the case of B4, in experiment [1], the binding result was “binds”.
